Measurements reported in patent US20210163606A1.

Target: NRP2 endogenous on U251 glioblastoma cells and on human lymphatic endothelial cells (HLEC) (human) (UniProt O60462)
Assay: cell-based or functional assay

Chain of NRP2 endogenous on U251 glioblastoma cells and on human lymphatic endothelial cells (HLEC) (human) (O60462 21-931): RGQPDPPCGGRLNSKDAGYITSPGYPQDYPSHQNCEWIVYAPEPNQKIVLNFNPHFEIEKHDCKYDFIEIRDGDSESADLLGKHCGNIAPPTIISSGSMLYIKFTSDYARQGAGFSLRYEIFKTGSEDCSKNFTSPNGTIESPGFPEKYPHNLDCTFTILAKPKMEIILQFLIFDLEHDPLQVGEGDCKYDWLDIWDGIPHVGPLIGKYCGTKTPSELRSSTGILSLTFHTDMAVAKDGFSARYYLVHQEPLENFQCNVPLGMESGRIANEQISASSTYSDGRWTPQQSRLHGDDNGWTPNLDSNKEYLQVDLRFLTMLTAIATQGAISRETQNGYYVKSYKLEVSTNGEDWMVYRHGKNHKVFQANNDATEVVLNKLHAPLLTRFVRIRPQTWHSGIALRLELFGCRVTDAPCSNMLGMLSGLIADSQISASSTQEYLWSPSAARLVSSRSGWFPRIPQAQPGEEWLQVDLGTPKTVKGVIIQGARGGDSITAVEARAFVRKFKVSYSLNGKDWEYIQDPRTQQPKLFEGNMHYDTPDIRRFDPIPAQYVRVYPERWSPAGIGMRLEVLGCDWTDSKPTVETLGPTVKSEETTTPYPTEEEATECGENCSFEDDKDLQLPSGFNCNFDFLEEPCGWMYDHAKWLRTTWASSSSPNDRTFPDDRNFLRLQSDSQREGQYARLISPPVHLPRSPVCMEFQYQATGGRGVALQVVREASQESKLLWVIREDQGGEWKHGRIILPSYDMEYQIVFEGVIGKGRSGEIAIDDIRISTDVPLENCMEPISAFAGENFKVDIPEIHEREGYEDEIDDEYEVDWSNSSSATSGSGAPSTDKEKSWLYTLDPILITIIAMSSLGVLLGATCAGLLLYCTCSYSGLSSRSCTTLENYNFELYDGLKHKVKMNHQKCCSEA

decrease in intracellular phospho-Akt levels in U251 cells: 50%
Substance: Semaphorin 3F (SEMA3F) (from UniProt Q13275 19-779) (ligand)
